In patent publication US20030199671A1, “Binding molecules for Fc-region polypeptides” (priority 2001, published 2003):

Assays:
[1] = target: human IgG1 (human) [IgG part: P01857]; experiment: batch binding, immobilised ligand
[2] = target: human IgG2 (human) [IgG part: P01859]; experiment: batch binding, immobilised ligand
[3] = target: human IgG3 (human) (UniProt P01860); experiment: batch binding, immobilised ligand
[4] = target: human IgG4 (human) [IgG part: P01861]; experiment: batch binding, immobilised ligand
Sequence of human IgG4 (human) [IgG part: P01861] (P01861 other isoform, or with tags, fused parts or gaps): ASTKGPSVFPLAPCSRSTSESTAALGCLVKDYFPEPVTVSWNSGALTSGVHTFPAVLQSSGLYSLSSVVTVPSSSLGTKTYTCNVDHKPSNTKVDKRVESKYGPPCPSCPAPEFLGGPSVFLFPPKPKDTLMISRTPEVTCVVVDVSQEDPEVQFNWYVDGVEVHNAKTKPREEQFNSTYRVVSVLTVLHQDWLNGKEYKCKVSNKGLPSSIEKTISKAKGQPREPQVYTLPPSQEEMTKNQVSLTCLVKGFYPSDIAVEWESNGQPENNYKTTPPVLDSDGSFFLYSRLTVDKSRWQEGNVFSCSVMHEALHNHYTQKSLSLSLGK

[5] = target: human IgG (unfractionated, polyclonal); experiment: filterplate; ligand density not determined
[6] = target: human IgG (unfractionated, polyclonal); experiment: mini-column; ligand density not determined
[7] = target: human IgG1 (human) [IgG part: P01857]; experiment: mini-column chromatography, immobilised ligand
[8] = target: human IgG2 (human) [IgG part: P01859]; experiment: mini-column chromatography, immobilised ligand
[9] = target: human IgG4 (human) [IgG part: P01861]; experiment: mini-column chromatography, immobilised ligand

Sequence of human IgG2 (human) [IgG part: P01859] (P01859 other isoform, or with tags, fused parts or gaps): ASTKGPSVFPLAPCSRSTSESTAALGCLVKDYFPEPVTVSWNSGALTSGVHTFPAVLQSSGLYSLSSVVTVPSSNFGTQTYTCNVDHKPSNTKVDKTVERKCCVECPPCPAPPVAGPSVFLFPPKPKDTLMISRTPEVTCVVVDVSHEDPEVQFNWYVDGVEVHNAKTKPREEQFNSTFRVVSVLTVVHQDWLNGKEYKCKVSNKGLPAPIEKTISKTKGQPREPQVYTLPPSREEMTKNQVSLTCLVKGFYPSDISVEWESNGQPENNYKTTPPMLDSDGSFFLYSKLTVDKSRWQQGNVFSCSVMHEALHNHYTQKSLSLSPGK
Sequence of human IgG1 (human) [IgG part: P01857] (P01857 other isoform, or with tags, fused parts or gaps): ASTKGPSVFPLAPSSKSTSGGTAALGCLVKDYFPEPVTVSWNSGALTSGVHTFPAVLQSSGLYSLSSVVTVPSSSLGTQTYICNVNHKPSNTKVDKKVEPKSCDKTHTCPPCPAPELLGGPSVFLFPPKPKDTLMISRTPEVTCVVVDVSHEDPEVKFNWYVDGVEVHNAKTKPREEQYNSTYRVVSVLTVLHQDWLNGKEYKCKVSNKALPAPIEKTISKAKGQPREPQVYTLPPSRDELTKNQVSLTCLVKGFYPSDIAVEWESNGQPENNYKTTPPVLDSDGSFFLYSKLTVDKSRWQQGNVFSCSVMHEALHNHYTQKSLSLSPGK
Sequence of human IgG3 (human) (P01860 other isoform, or with tags, fused parts or gaps): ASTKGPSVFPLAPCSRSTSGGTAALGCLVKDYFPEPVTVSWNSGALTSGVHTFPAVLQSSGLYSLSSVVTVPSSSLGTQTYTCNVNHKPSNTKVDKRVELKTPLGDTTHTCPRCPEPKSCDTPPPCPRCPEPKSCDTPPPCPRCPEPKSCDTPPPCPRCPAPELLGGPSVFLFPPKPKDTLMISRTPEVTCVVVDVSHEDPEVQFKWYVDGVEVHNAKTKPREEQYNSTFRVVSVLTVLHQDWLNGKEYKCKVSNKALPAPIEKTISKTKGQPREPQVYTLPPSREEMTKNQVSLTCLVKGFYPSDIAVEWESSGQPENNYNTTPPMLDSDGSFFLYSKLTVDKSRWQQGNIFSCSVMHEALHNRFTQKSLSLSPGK

Bound (% of Total Load) [1]: 96%
bdg % (of Total Load) [1]: 93%
Bound (% of Total Load) [2]: 85%
bdg % (of Total Load) [2]: 93%
Bound (% of Total Load) [3]: 0%
bdg % (of Total Load) [3]: 5%
Bound (% of Total Load) [4]: 89%
bdg % (of Total Load) [4]: 92%
Static Capacity (mg IgG/mL resin) [5]: 11.1
10% Breakthrough Capacity (mg IgG/mL resin) [6]: 12.9
Total Dynamic Capacity (mg IgG/mL resin) [6]: 16.3
binding efficiency [7]: > 90%
binding efficiency [8]: > 90%
binding efficiency [9]: > 90%
Substance: Protein A (from UniProt P38507 37-327)
